{"source": "paper PMC12724168", "about": "“Real-time simultaneous monitoring of multiple analytes in bacterial cultures” (Applied and Environmental Microbiology, 2025)", "key": {"[1]": {"test": "Fluorescence titration of LAOBP-22C conjugates with arginine", "assay_type": "binding", "conditions": "LAOBP-22C conjugate, ligand arginine", "text": "(§1) Because of this, we decided to design and develop a biosensor for arginine, using the lysine/arginine/ornithine binding protein from Salmonella (LAOBP) ([52]). We carried out cysteine scanning by introducing four individual cysteine mutations at positions near the hinge region. The selection of cysteine positions was guided by the crystal structures of the apo and bound forms of the protein ([53]) (Fig. S1). Each of the four mutants was conjugated to six different fluorophores, and the fluorescence change upon the addition of ligand was characterized for each of the 24 protein-ligand conjugates. […] We determined the dissociation constants for all three ligands (arginine, lysine, and ornithine) using the LAOBP-22C acrylodan conjugate (Fig. 1F) and the coumarin conjugate (Fig. S2). With a large change in fluorescence and a dissociation constant of 1.5 µM for both arginine and lysine, we chose to use the LAOBP-22C acrylodan conjugate for subsequent experiments.\n(§2) Fluorescence analysis of protein-fluorophore conjugates was carried out on a Jasco FP-8500 fluorometer. […] Fluorescence values were volume adjusted, and Kd values were determined by fitting the titration data using Kaleidagraph according to the following equation: […]\n(§3) where F is the observed fluorescence at a given ligand concentration [L], Fo is the fluorescence in the absence of ligand, and Fmax is the fluorescence at saturation."}, "[2]": {"test": "Fluorescence titration of LAOBP-22C conjugates with lysine", "assay_type": "binding", "conditions": "LAOBP-22C conjugate, ligand lysine", "text": "as §1, §2, §3"}, "[3]": {"system": "cultures of P. aeruginosa, S. aureus, E.coli, E. faecalis, and C. striatum", "test": "Gel electrophoresis of biosensors after 24 h in bacterial cultures (stability)", "conditions": "24 hours in culture, LB, supernatants", "procedure": "To determine if the observed changes in fluorescence were not simply the result of degradation of the protein sensors over the course of E. coli growth, glucose, individual ligands (arabinose, ribose, glutamate, arginine, or ornithine) were added to 24-hour-old cultures containing each corresponding PBP. Immediately after the addition of the respective analyte, fluorescence was measured again (Fig. 3F).\nFigure S3: Gel electrophoresis analysis of the stability of the biosensors after incubation with different bacterial species in culture for 24 hours. Left gel: TnGBP, Right gel: LAOBP. A Bio-Rad gel imager was used to detect the fluorescently labeled biosensor in each sample. In each gel, the lanes are as follows: 1. MW standard, 2. Pure protein, 3. Pure protein in LB with no bacteria, 4 – 8: supernatants after 24 hours of cultures of P. aeruginosa, S. aureus-GBP, E.coli, E. faecalis, and C. striatum."}, "[4]": {"test": "Fluorescence change of LAOBP-22C fluorophore conjugates upon addition of ligand", "assay_type": "binding", "conditions": "LAOBP-22C mutant conjugates, ligand not given", "text": "as §1\nFluorescence analysis of protein-fluorophore conjugates was carried out on a Jasco FP-8500 fluorometer. UV-clear, four-sided cuvettes containing 200–300 nM labeled protein in working buffer were used. The following parameters were used for each of the fluorophores: Acrylodan (excitation: 359 nm, emission: 440–550 nm), Coumarin (excitation: 390 nm, emission: 430–520 nm), IANBD (excitation: 460 nm, emission: 500–600 nm), Alexa488 (excitation: 490 nm, emission: 500–560 nm), TMR (excitation: 555 nm, emission: 570–620 nm), and Texas Red (excitation: 595 nm, emission: 600–660 nm). Titrations were carried out by adding increasing amounts of ligand while monitoring changes in emission at the maximum wavelength. Fluorescence values were volume adjusted, and Kd values were determined by fitting the titration data using Kaleidagraph according to the following equation: […]"}, "[5]": {"test": "Fluorescence titration of LAOBP-22C conjugates with ornithine", "assay_type": "binding", "conditions": "LAOBP-22C conjugate, ligand ornithine", "text": "as §1, §2, §3"}}}
{"molecule": "LAOBP-22C Acrylodan (conjugate, UniProt P02911 23-260, looked up, variant A22C, Acrylodan label) Lysine/arginine/ornithine-bind …: ALPQTVRIGTDTTYAPFSSKDCKGEFIGFDIDLGNEMCKRMQVKCTWVASDFDALIPSLKAKKIDAIISSLSITDKRQQEIAFSDKLYAADSRLIAAKGSPIQPTLESLKGKHVGVLQGSTQEAYANDNWRTKGVDVVAYANQDLIYSDLTAGRLDAALQDEVAASEGFLKQPAGKEYAFAGPSVKDKKYFGDGTGVGLRKDDTELKAAFDKALTELRQDGTYDKMAKKYFDFNVYGD", "values": [{"measurement": "Kd", "setting": "[1]", "result": "1.5 ± 0.1", "unit": "µM"}, {"measurement": "Kd", "setting": "[2]", "result": "1.5 ± 0.1", "unit": "µM"}, {"measurement": "stability of the biosensor in bacterial culture (gel electrophoresis)", "setting": "[3]", "result": "two bands are visible"}, {"measurement": "% Change", "setting": "[4]", "result": "−50", "unit": "%"}, {"measurement": "Kd", "setting": "[5]", "result": "38.9 ± 1.8", "unit": "µM"}]}
{"molecule": "LAOBP-22C IANBD (conjugate, UniProt P02911 23-260, looked up, variant A22C, IANBD label) Lysine/arginine/ornithine-bind …: ALPQTVRIGTDTTYAPFSSKDCKGEFIGFDIDLGNEMCKRMQVKCTWVASDFDALIPSLKAKKIDAIISSLSITDKRQQEIAFSDKLYAADSRLIAAKGSPIQPTLESLKGKHVGVLQGSTQEAYANDNWRTKGVDVVAYANQDLIYSDLTAGRLDAALQDEVAASEGFLKQPAGKEYAFAGPSVKDKKYFGDGTGVGLRKDDTELKAAFDKALTELRQDGTYDKMAKKYFDFNVYGD", "values": [{"measurement": "% Change", "setting": "[4]", "result": -8, "unit": "%"}]}
{"molecule": "LAOBP-22C Texas Red (conjugate, UniProt P02911 23-260, looked up, variant A22C, Texas Red label) Lysine/arginine/ornithine-bind …: ALPQTVRIGTDTTYAPFSSKDCKGEFIGFDIDLGNEMCKRMQVKCTWVASDFDALIPSLKAKKIDAIISSLSITDKRQQEIAFSDKLYAADSRLIAAKGSPIQPTLESLKGKHVGVLQGSTQEAYANDNWRTKGVDVVAYANQDLIYSDLTAGRLDAALQDEVAASEGFLKQPAGKEYAFAGPSVKDKKYFGDGTGVGLRKDDTELKAAFDKALTELRQDGTYDKMAKKYFDFNVYGD", "values": [{"measurement": "% Change", "setting": "[4]", "result": "−22", "unit": "%"}]}
{"molecule": "LAOBP-22C TMR (conjugate, UniProt P02911 23-260, looked up, variant A22C, TMR label) Lysine/arginine/ornithine-bind …: ALPQTVRIGTDTTYAPFSSKDCKGEFIGFDIDLGNEMCKRMQVKCTWVASDFDALIPSLKAKKIDAIISSLSITDKRQQEIAFSDKLYAADSRLIAAKGSPIQPTLESLKGKHVGVLQGSTQEAYANDNWRTKGVDVVAYANQDLIYSDLTAGRLDAALQDEVAASEGFLKQPAGKEYAFAGPSVKDKKYFGDGTGVGLRKDDTELKAAFDKALTELRQDGTYDKMAKKYFDFNVYGD", "values": [{"measurement": "% Change", "setting": "[4]", "result": "−10", "unit": "%"}]}
{"molecule": "LAOBP-22C Alexa488 (conjugate, UniProt P02911 23-260, looked up, variant A22C, Alexa488 label) Lysine/arginine/ornithine-bind …: ALPQTVRIGTDTTYAPFSSKDCKGEFIGFDIDLGNEMCKRMQVKCTWVASDFDALIPSLKAKKIDAIISSLSITDKRQQEIAFSDKLYAADSRLIAAKGSPIQPTLESLKGKHVGVLQGSTQEAYANDNWRTKGVDVVAYANQDLIYSDLTAGRLDAALQDEVAASEGFLKQPAGKEYAFAGPSVKDKKYFGDGTGVGLRKDDTELKAAFDKALTELRQDGTYDKMAKKYFDFNVYGD", "values": [{"measurement": "% Change", "setting": "[4]", "result": "+8%"}]}
